# Measurements as given in patent US20250051821.
# T1: IFF01073 produced in E. coli without glycosylation
# T1 chain: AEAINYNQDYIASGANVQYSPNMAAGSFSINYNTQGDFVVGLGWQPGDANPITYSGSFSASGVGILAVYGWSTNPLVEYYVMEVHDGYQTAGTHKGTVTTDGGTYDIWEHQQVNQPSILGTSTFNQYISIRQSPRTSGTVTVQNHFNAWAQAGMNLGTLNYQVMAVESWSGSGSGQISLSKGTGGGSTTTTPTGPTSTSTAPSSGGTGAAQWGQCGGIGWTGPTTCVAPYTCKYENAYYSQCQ
# T2: IFF05588
# T2 chain: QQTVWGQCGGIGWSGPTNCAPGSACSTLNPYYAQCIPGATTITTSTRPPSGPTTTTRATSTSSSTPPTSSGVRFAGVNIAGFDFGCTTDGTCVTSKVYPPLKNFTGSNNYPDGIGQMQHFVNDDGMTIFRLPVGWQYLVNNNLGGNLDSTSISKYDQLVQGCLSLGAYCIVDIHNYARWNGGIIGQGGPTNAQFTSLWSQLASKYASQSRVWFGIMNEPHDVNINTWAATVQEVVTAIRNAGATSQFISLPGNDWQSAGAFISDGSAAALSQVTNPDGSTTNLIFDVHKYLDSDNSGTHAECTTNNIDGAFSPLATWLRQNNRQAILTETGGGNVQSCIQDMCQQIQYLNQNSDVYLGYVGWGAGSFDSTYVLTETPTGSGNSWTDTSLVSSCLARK
# T3: IFF01073 produced in T. reesei with glycosylation
# T3 chain: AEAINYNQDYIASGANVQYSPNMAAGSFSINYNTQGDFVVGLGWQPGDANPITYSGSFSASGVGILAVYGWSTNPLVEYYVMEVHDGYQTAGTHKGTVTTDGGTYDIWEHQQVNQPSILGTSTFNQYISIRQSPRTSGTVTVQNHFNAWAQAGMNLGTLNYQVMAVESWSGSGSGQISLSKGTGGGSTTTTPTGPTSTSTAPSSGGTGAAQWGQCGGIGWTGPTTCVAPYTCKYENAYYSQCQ
# T4: IFF01509
# T4 chain: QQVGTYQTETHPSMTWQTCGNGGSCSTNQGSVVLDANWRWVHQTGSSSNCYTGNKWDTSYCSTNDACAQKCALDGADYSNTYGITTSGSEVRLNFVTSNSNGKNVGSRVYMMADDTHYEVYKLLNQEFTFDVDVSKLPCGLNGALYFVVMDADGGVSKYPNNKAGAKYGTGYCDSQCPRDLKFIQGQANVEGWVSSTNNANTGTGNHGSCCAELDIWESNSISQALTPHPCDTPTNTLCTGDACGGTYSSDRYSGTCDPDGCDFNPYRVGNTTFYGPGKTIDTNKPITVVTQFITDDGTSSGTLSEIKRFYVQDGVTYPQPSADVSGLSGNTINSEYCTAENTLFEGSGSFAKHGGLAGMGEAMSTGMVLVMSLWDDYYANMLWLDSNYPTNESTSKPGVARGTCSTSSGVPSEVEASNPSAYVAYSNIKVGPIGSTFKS
# T5: IFF01540
# T5 chain: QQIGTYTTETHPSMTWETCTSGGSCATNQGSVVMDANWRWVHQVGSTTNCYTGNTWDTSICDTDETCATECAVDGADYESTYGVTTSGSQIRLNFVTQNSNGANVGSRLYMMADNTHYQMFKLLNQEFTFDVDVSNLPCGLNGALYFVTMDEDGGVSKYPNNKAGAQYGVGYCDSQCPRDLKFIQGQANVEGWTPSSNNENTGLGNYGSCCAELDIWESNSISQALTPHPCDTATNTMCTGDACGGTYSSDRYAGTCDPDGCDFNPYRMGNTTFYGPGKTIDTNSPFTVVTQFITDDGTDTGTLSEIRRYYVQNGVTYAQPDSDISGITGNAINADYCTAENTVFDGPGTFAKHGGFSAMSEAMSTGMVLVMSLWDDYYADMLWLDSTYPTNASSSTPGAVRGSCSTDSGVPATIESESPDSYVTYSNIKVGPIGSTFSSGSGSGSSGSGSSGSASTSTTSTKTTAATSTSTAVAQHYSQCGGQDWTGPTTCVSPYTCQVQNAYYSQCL
# T6: IFF07399
# T6 chain: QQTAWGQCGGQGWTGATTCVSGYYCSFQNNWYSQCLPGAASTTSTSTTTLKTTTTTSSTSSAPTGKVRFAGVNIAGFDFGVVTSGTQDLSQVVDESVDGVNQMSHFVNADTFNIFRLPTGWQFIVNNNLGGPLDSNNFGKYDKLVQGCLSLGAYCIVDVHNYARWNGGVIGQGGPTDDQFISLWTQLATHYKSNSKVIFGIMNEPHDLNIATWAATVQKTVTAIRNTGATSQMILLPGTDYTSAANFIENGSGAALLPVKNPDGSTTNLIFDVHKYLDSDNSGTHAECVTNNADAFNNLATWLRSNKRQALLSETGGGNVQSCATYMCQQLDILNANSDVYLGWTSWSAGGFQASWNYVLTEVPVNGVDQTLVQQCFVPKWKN
# Tests used:
# [1] = biological target: IFF06679
# [2] = biological target: IFF08955v3
# [3] = biological target: T1, IFF01073 produced in E. coli without …
# [4] = biological target: T2, IFF05588
# [5] = biological target: IFF03904
# [6] = biological target: T3, IFF01073 produced in T. reesei with …
# [7] = biological target: T4, IFF01509
# [8] = biological target: T5, IFF01540
# [9] = biological target: T6, IFF07399
# [10] = biological target: IFF08955
protein,measurement,setting,value
IFF05497 (protein) LAILDKPVIQPNFPGNGLASLGQGLMDHLAPTHSTWDDWGAGWIPQDCKSLVEGAGLSASDVIPFNIHYDDCAQTWTFCRHKDSPLSEITILDIFGRLPVRMRSFVRHLVFIPGAKSAGSNGDNVLLRGDIDVTVFAHEIGHSLDSHAFDPSYGVPFSTGNVWISNYNLDSAVPDPYAQTSQQENFAQQTVISLYDKVVPGGIGTIQPNWQAIFHQYATLEGYIGDVIIPGGTCTHRLTDSPPVQMSSLAKGRRALGPKPNVALSPEVEEIEAIPMKSSITMTSFDEAGKPNGTYVINL,Mobility change (SDS-PAGE),[1],yes
same,Mobility change (SDS-PAGE),[2],yes
same,Gel mobility change (SDS-PAGE),[3],no
same,Mobility change (SDS-PAGE),[4],yes
same,"Relative late peak area (centered, scaled, averaged over 5, 10 and 15 min)",[4],-0.77
same,"Relative late peak area (centered, scaled, averaged over doses, 24 h; sample diluted 1-fold)",[4],-0.28
same,Mobility change (SDS-PAGE),[5],yes
same,Gel mobility change (SDS-PAGE),[6],yes
same,Mobility change (SDS-PAGE),[6],yes
same,Mobility change (SDS-PAGE),[7],no
same,Mobility change (SDS-PAGE),[8],yes
same,Gel mobility change (SDS-PAGE),[9],yes
same,Mobility change (SDS-PAGE),[9],yes
same,Mobility change (SDS-PAGE),[10],no
